According to US20220267421A1 (INVOX PHARMA, published 2022):
Positions count from the first letter of the chain named.

B1: FS22-063-AA/FS28m-228 mAb^2 (bispecific antibody, human IgG1, kappa, L234A L235A, V domains shown)
VH: EVQLLESGGGLVQPGGSLRLSCAASGFTFSTYFMVWVRQAPGKGLEWVSMISPKSSNTYYADSVKGRFTISRDNSKNTLYLQMNSLRAEDTAVYYCARWFTPARFDYWGQGTLVTVSS
VL: EIVLTQSPGTLSLSPGERATLSCRASQSVSSSYLAWYQQKPGQAPRLLIYGASSRATGIPDRFSGSGSGTDFTLTISRLEPEDFAVYYCQQPFPFSFTFGQGTKVEIKR
notes: LALA
B2: FS22m-063-AA/FS28m-228-010 mAb^2 (bispecific antibody, human IgG1, kappa, L234A L235A, V domains shown)
VH: B1 VH with W99Y, F100H, T101I, P102S, A103P
VL: B1 VL
notes: Anti-mouse CD137 Fcab with anti-mouse MSLN Fab; LALA; also called CD137/MSLN mAb^2
B3: G1-AA/FS28-185 (antibody, human IgG1, kappa, L234A L235A, V domains shown)
VH: EVQLLESGGGLVQPGGSLRLSCAASGFTFTTSAMSWVRQAPGKGLEWVSRINPYEGETNYADSVKGRFTISRDNSKNTLYLQMNSLRAEDTAVYYCARGWSIATYYKSAMDYWGQGTLVTVSS
VL: EIVLTQSPGTLSLSPGERATLSCRASQSVSSSYLAWYQQKPGQAPRLLIYGASSRATGIPDRFSGSGSGTDFTLTISRLEPEDFAVYYCQQSSYSAPVTFGQGTKVEIKR
notes: IgG1 LALA

Columns and labels:
mouse MSLN-His-Avi [1] = target: T1, mouse MSLN-His-Avi (mouse, UniProt Q61468 298-600, single biotin (BirA) in the biotinylated form); experiment: ratio of the two SPR KD
T1 construct: Monomeric, made in HEK293-6E; also called mMSLN-His-Avi
T1 sequence: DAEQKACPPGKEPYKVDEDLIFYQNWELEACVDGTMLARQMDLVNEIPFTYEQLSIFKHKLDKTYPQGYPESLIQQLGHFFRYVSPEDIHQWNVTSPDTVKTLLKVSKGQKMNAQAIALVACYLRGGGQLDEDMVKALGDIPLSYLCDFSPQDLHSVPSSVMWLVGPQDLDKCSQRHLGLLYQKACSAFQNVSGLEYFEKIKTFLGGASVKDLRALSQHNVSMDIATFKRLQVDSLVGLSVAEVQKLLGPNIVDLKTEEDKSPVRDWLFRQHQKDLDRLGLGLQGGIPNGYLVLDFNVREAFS
Experimental: (§1) The procedure for binding to immobilised MSLN was similar to the method described in section 2.1.4 with mMSLN-His-Avi immobilised at 50 RU. To determine the affinity for soluble MSLN the mAb² were captured via anti-human Fc. Briefly, 25 μg/ml anti-human IgG (Fc) antibody (GE Healthcare, Human Antibody Capture Kit, BR100839) was coated on flow cells 1, 2, 3 and 4 of a Biacore sensor chip CM5 (GE Healthcare, BR100530) achieving a final response of approximately 750 RU. The mAb² clones, diluted in HBS-EP buffer (GE Healthcare, BR100188) at 50 nM, were injected individually on flows cell 2, 3 and 4 at 30 μl/min to achieve a response of approximately 100 RU. […] Regeneration was achieved by injecting 3 M magnesium chloride (GE Healthcare, Human Antibody Capture Kit, BR100839) for 30 seconds at a rate of 30 μl/min.

mouse MSLN-His-Avi [2] = target: T1, mouse MSLN-His-Avi; experiment: SPR (Biacore), mMSLN-His-Avi immobilised at 50 RU
Experimental: as §1

mouse MSLN-His-Avi [3] = target: T1, mouse MSLN-His-Avi; experiment: SPR (Biacore), mAb^2 captured via anti-human Fc, mMSLN-His-Avi in solution
Experimental: as §1

[4] = target: T2, human EpCAM-hFc (in-house production) (human, UniProt P16422 24-265, limits assumed); experiment: ELISA, antigen coated at 1 ug/ml
T2 construct: not shown: human Fc
T2 sequence (looked up): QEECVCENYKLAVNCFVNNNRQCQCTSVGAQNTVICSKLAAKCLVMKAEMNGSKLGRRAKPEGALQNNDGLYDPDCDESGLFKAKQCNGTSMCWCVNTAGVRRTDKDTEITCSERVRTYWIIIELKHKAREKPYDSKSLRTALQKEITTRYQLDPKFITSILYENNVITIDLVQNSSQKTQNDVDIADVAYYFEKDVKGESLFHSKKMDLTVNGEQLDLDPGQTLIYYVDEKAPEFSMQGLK
Experimental: (§2) A similar protocol was used as described in section 1.2.1 in which maxisorp plates were coated with 1 μg/ml of recombinant human MSLN-His-Avi, human CEACAM-5-His-Fc (Sino Biological, 1077-H03H), human E-Cadherin (R&D systems, 8505-EC), human Thrombomodulin (Peprotech, 100-58) or human EpCAM-hFc (in-house production). Binding of the anti-MSLN mAbs, tested at a concentration range of 0.02 to 1000 nM (3-fold dilutions) was detected using anti-human Fab-HRP (Sigma, A0293). Positive controls for the respective molecules included human EpCAM antibody (clone 2G8 from patent no. U.S. Pat. No. 8,236,308 B2) CEACAM-5 antibody (clone hMN15 from patent no. U.S. Pat. No. 8,771,690 B2), human E-Cadherin antibody, mouse IgG2b clone 180215 (R&D systems, MAB1838), human Thrombomodulin antibody, mouse IgG1, clone 501733 (R&D systems, MAB3947). The latter two were detected using goat anti mouse Fc-HRP (Sigma, A9309) as secondary mAb.

[5] = target: T3, human CEACAM-5-His-Fc (Sino Biological, 1077-H03H) (human, UniProt P06731 35-685); experiment: ELISA, antigen coated at 1 ug/ml
T3 construct: not shown: His tag and Fc
T3 sequence (looked up): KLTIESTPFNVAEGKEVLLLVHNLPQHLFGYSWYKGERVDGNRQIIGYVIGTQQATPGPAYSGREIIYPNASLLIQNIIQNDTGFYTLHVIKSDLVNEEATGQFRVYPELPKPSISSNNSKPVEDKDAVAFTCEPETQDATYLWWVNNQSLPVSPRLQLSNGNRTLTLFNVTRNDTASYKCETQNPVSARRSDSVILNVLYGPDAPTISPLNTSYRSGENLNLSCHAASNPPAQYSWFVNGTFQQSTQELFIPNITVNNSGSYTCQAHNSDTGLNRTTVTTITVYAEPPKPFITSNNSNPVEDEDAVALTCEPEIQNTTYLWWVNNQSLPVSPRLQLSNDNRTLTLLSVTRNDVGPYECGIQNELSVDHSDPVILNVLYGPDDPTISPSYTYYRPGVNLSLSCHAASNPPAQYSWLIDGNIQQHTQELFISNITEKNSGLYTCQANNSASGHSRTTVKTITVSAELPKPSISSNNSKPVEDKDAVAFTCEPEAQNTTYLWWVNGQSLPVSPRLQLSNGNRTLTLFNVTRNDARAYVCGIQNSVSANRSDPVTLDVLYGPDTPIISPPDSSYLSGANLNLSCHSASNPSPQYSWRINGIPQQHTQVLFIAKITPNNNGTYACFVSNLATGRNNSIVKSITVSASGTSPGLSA
Experimental: as §2

[6] = target: T4, human E-Cadherin (R&D systems, 8505-EC) (human, UniProt P12830 155-707); experiment: ELISA, antigen coated at 1 ug/ml
T4 sequence (looked up): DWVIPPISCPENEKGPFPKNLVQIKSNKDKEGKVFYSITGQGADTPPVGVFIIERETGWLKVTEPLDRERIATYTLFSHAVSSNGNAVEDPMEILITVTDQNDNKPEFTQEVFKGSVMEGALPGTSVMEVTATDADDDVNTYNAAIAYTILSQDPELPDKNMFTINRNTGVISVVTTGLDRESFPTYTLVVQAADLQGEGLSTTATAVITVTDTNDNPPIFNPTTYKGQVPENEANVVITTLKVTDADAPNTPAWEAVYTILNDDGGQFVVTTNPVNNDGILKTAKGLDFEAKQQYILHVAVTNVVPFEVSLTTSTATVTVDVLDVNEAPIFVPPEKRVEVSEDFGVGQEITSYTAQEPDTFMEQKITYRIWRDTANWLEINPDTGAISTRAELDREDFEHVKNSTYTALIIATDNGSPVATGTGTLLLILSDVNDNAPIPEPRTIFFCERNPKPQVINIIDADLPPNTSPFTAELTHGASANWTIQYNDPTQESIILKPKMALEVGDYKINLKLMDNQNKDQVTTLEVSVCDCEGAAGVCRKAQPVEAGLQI
Experimental: as §2

[7] = target: human Thrombomodulin (Peprotech, 100-58) (human, UniProt P07204 19-515); experiment: ELISA, antigen coated at 1 ug/ml
human Thrombomodulin (Peprotech, 100-58), sequence (P07204 19-515 limits assumed): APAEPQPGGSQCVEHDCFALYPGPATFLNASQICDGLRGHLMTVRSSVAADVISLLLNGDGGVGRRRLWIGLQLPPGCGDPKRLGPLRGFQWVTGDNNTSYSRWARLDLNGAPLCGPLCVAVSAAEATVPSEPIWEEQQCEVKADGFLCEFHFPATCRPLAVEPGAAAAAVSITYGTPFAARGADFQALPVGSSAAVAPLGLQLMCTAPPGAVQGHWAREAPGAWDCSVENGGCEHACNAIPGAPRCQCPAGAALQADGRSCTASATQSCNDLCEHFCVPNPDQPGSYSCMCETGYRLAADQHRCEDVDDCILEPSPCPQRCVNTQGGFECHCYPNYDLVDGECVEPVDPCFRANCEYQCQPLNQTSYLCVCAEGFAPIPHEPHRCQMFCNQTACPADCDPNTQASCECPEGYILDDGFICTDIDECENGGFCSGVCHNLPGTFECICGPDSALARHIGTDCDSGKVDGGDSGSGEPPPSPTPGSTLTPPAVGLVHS
Experimental: as §2

human MSLN-His-Avi [8] = target: T5, human MSLN-His-Avi (human, UniProt Q13421 296-598, single biotin (BirA) in the biotinylated form); experiment: ELISA, hMSLN-His-Avi coated at 1 ug/ml
T5 construct: Monomeric, made in HEK293-6E; Used both immobilised and in solution; also called hMSLN-His-Avi; biotinylated hMSLN-His-Avi
T5 sequence (Q13421 other isoform, or with tags, fused parts or gaps): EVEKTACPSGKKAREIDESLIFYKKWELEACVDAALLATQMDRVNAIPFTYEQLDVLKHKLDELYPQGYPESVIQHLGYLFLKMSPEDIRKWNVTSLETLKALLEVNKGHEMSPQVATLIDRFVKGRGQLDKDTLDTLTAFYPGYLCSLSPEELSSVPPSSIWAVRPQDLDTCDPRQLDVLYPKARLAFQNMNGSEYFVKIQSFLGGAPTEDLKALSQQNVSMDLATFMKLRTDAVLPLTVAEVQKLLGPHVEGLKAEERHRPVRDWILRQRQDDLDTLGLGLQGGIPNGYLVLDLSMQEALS

[9] = target: T6, cell surface human mesothelin (MSLN) (human, UniProt Q13421 296-598); experiment: flow cytometry, NCI-H226 cells (n = 3)
T6 construct: whole, on cells; also called cell surface MSLN
T6 sequence (Q13421 other isoform, or with tags, fused parts or gaps limits assumed): as the sequence (Q13421 other isoform, or with tags, fused parts or gaps) above
Experimental: Briefly, NCI-H226 cells (ATCC CRL-5826) were harvested from T175 cell culture flasks using StemPro Accutase (Gibco, A11105-01). Cells were centrifuged at 1200 rpm for 3 min and resuspended in ice cold FACS buffer made up of DPBS (Life Technologies, 14190169) and 1% BSA (Sigma-Aldrich, A7906) at 2×10⁶ cells/ml and 50 μl per well was seeded in a 96-well V-bottom plate (Costar, 3894). All mAbs tested were diluted in FACS buffer in 120 μl at a concentration range of 0.01-200 nM (4-fold dilutions). The NCI-H226 cells were then centrifuged, supernatant removed and cells resuspended in 100 μl of each mAb dilution and incubated at 4° C. for 45 min. Cells were washed twice by centrifugation with 150 μl FACS buffer, resuspended in 100 μl containing goat anti-human IgG (γ-chain specific) F(ab′)2 fragment-R-Phycoerythrin antibody (Sigma, P8047) diluted 1:1000 in FACS buffer and incubated at 4° C. for 45 min. The cells were washed once with 150 μl FACS buffer and then with 150 μl DPBS, resuspended in 150 μl DPBS containing DAPI (Biotium, 40043) at 1:10.000 and read on the BDCantoll or iQue (Intellicyt). Data was analysed using FlowJo v10 to determine the signal geometric mean for PE for live cells in each well.

human MSLN-His-Avi [10] = target: T5, human MSLN-His-Avi; experiment: SPR (Biacore), hMSLN-His-Avi immobilised at 50 RU, mAb injected
Experimental: (§3) Human MSLN-His-Avi was immobilised on flow cell 2 on a CM5 Series S BIAcore sensor chip (GE Healthcare, BR100530) using an amine coupling kit (GE Healthcare, BR10050) to approximately 200 response units (RU). Flow cell 1 was left blank for subtraction. HEK293-6E supernatants or purified proteins were adjusted with HBS-EP+(GE Healthcare) to approximately 50 nM anti-MSLN mAb per sample. Samples were injected over flow cell 1 and 2 for 2.5 min at 30 μl/min and then allowed to dissociate in HBS-EP buffer for 2.5 min. Regeneration was achieved by injecting 10 mM glycine pH 1.5 (GE Healthcare, BR100354) for 30 seconds at a rate of 30 μl/min. Subtracted data (flow cell 2−flow cell 1) were analysed using BIAevaluation 3.2 Software (GE Healthcare).
(§4) For each bin described in 2.1.3, the binding kinetics were determined using the same method as described in section 2.1.2, except that human or cyno MSLN-His-Avi was immobilised at 50 or 100 RU. Clones were tested at a concentration range of 81 nM to 0.33 nM in 3-fold dilutions.

human MSLN-His-Avi [11] = target: T5, human MSLN-His-Avi; experiment: SPR (Biacore), hMSLN-His-Avi immobilised at 100 RU, mAb injected
Experimental: as §3, §4

Row | Binder | Ratio of KD in solution/immobilised for mouse MSLN-His-Avi (mouse MSLN-His-Avi [1]) | Kd (mouse MSLN-His-Avi [2]) [nM] | Kd (mouse MSLN-His-Avi [3]) [nM] | binding result [4] | binding result [5] | binding result [6] | binding result [7] | EC50 (human MSLN-His-Avi [8]) [nM] | maximum binding signal (human MSLN-His-Avi [8]) | EC50 [9] [nM] | Emax (MFI signal) [9] [MFI] | Kd (human MSLN-His-Avi [10]) [nM] | Kd (human MSLN-His-Avi [11]) [nM]
1 | B1 | 31.9 | 7.9 | 252 | – | – | – | – | – | – | – | – | – | –
2 | B2 | 23.2 | 2.6 | 60.2 | – | – | – | – | – | – | – | – | – | –
3 | B3 | – | – | – | no binding (tested: 1000 nM) | no binding (tested: 1000 nM) | no binding (tested: 1000 nM) | no binding (tested: 1000 nM) | ~0.5 | 3 | 37.5 | 2440 | 37 | 29.6
